Measured values: patent US11814435B2, “Therapeutic antibodies and their uses” (PFIZER INC., priority 2015, dated 2023)
Substitutions are numbered along the chain they refer to. Values belong to the molecule of their own block, whether it stands above or below them.

How the values were obtained:
Cyno BCMA = test: Kinetics and affinity of cyno BCMA/human IgG interactions by SPR (Bio-Rad Proteon XPR36); type: binding, cynomolgus; details: 37° C.
hBCMA (human BCMA) = target: T1, hBCMA (human BCMA) (Homo sapiens, UniProt Q02223); test: Kinetics and affinity of hBCMA/human IgG interactions by SPR (Bio-Rad Proteon XPR36); type: binding; details: human BCMA, 37° C.
T1 sequence (Q02223 1-184): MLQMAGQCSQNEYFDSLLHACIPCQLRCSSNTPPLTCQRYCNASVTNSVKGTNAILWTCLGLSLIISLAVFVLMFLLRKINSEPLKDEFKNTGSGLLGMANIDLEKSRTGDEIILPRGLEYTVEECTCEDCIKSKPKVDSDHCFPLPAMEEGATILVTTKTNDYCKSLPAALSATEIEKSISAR
Procedure, shortened: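 Anti-BCMA IgGs were amine-coupled to a GLC chip at 25° C. BCMA analyte was run by kinetic titration at 0.08, 0.4, 2, 10 and 50 nM, with 2-minute associations and 2-hour dissociation, at 37° C. or 25° C. in HBS-T+ (pH 7.4) plus 1 mg/mL BSA. Double-referenced sensorgrams were fit to 1:1 Langmuir with mass transport.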

Kd (Cyno BCMA): 381 pM
kd Cyno (Cyno BCMA): 0.000831 s⁻¹
Kd (hBCMA (human BCMA)): 135 pM
ka Human (hBCMA (human BCMA)): 4.47e+06 M⁻¹ s⁻¹
kd Human (hBCMA (human BCMA)): 0.000603 s⁻¹
B1: A02_Rd4_6 nM_C04: anti-BCMA antibody (antibody, V domains shown)
VH: EVQLLESGGGLVQPGGSLRLSCAASGFTFSSYAMNWVRQAPGKGLEWVSAIMSSGGPLYYADSVKGRFTISRDNSKNTLYLQMNSLRAEDTAVYYCARYWPMALWGQGTLVTVSS
VL: EIVLTQSPGTLSLSPGERATLSCRASQSVSALYLAWYQQKPGQAPRLLMYDASIRATGIPDRFSGSGSGTDFTLTISRLEPEDFAVYYCQQYQVWPLTFGQGTKVEIK
ka Cyno (Cyno BCMA): 2.18e+06 M⁻¹ s⁻¹

kd Cyno (Cyno BCMA): 0.00199 s⁻¹
ka Human (hBCMA (human BCMA)): 1.5e+07 M⁻¹ s⁻¹
kd Human (hBCMA (human BCMA)): 0.00136 s⁻¹
B2: C01_Rd4_6 nM_C26: anti-BCMA antibody (antibody, V domains shown)
VH: B1 VH with A33P, N35S, M52G, S53G, P57S, Y59P, A103D, L104S
VL: B1 VL with M49I, I54S, T57P, Q93S, V94A
ka Cyno (Cyno BCMA): 4.75e+06 M⁻¹ s⁻¹

kd Cyno (Cyno BCMA): 0.00256 s⁻¹
ka Human (hBCMA (human BCMA)): 7.26e+06 M⁻¹ s⁻¹
kd Human (hBCMA (human BCMA)): 0.000443 s⁻¹
B3: A02_Rd4_0.6 nM_C26: anti-BCMA antibody (antibody, V domains shown)
VH: B1 VH with M52L, S53M, P57S, L58T, A103S
VL: B1 VL with R24G, A25P, A31S, L32S, V94S
ka Cyno (Cyno BCMA): 2.71e+06 M⁻¹ s⁻¹

Kd (Cyno BCMA): 5070 pM
kd Cyno (Cyno BCMA): 0.0113 s⁻¹
Kd (hBCMA (human BCMA)): 188 pM
ka Human (hBCMA (human BCMA)): 3.92e+06 M⁻¹ s⁻¹
kd Human (hBCMA (human BCMA)): 0.000738 s⁻¹
B4: A02_Rd4_6 nM_C08: anti-BCMA antibody (antibody, V domains shown)
VH: B1 VH with M52L, S53D, P57S, L58T, A103S, L104P
VL: B1 VL with A31F, Q93G, V94S
ka Cyno (Cyno BCMA): 2.23e+06 M⁻¹ s⁻¹

kd Cyno (Cyno BCMA): 0.00128 s⁻¹
ka Human (hBCMA (human BCMA)): 8.53e+06 M⁻¹ s⁻¹
kd Human (hBCMA (human BCMA)): 0.000566 s⁻¹
B5: A02_Rd4_0.6 nM_C13: anti-BCMA antibody (antibody, V domains shown)
VH: B1 VH with M52S, S53D, P57Y, L58R, A103S
VL: B1 VL with A31S, L32S, L34W, Q93E, V94S
ka Cyno (Cyno BCMA): 2.29e+06 M⁻¹ s⁻¹

kd Cyno (Cyno BCMA): 0.000226 s⁻¹
ka Human (hBCMA (human BCMA)): 7.98e+06 M⁻¹ s⁻¹
kd Human (hBCMA (human BCMA)): 0.000113 s⁻¹
B6: COMBO_Rd4_6 nM_C25: anti-BCMA antibody (antibody, V domains shown)
VH: B1 VH with A33P, N35S, M52G, S53G, P57S, L58T, A103D, L104P
VL: B1 VL with A31S, L32P, V94S
ka Cyno (Cyno BCMA): 2.85e+06 M⁻¹ s⁻¹

kd Cyno (Cyno BCMA): 0.00464 s⁻¹
ka Human (hBCMA (human BCMA)): 1.55e+07 M⁻¹ s⁻¹
kd Human (hBCMA (human BCMA)): 0.0063 s⁻¹
B7: C01_Rd4_0.6 nM_C16: anti-BCMA antibody (antibody, V domains shown)
VH: B1 VH with A33P, N35S, M52G, S53G, P57S, Y59P, A103D, L104S
VL: B1 VL with A31S, L32T, M49I, I54S, T57P, Q93S, V94S
ka Cyno (Cyno BCMA): 4.95e+06 M⁻¹ s⁻¹

kd Cyno (Cyno BCMA): 0.000248 s⁻¹
ka Human (hBCMA (human BCMA)): 1.17e+07 M⁻¹ s⁻¹
kd Human (hBCMA (human BCMA)): 7.34e-05 s⁻¹
B8: COMBO_Rd4_6 nM_C21: anti-BCMA antibody (antibody, V domains shown)
VH: B1 VH with A33P, N35S, M52G, S53G, P57S, Y59P, A103D, L104S
VL: B1 VL with L32A, Q93M, V94C
ka Cyno (Cyno BCMA): 3.17e+06 M⁻¹ s⁻¹

kd Cyno (Cyno BCMA): 0.00163 s⁻¹
ka Human (hBCMA (human BCMA)): 2.3e+06 M⁻¹ s⁻¹
kd Human (hBCMA (human BCMA)): 0.000296 s⁻¹
B9: A02_Rd4_0.6 nM_C10: anti-BCMA antibody (antibody, V domains shown)
VH: B1 VH with M52S, S53G, S54W, P57S, Y59P, A103D, L104S
VL: B1 VL with L32Q, V94R
ka Cyno (Cyno BCMA): 883000 M⁻¹ s⁻¹

kd Cyno (Cyno BCMA): 0.00868 s⁻¹
ka Human (hBCMA (human BCMA)): 1.58e+07 M⁻¹ s⁻¹
kd Human (hBCMA (human BCMA)): 0.0128 s⁻¹
B10: C01_Rd4_6 nM_C09: anti-BCMA antibody (antibody, V domains shown)
VH: B1 VH with A33P, N35S, I51T, M52V, S53G, P57S, L58I, Y59G, A103D, L104S
VL: B1 VL with R24A, A25C, A31S, L32T, M49I, I54S, T57P, Q93S, V94A
ka Cyno (Cyno BCMA): 3.73e+06 M⁻¹ s⁻¹

kd Cyno (Cyno BCMA): 0.0121 s⁻¹
ka Human (hBCMA (human BCMA)): 1.82e+07 M⁻¹ s⁻¹
kd Human (hBCMA (human BCMA)): 0.0154 s⁻¹
B11: C01_Rd4_0.6 nM_C06: anti-BCMA antibody (antibody, V domains shown)
VH: B1 VH with A33P, N35S, M52G, S53G, P57S, Y59P, A103D, L104S
VL: EIVLTQSPGTLSLSPGERATLSCRASEAVPSTYLAWYQQKPGQAPRLLIYDASSRAPGIPDRFSGSGSGTDFTLTISRLEPEDFAVYYCQQYSAFPLTFGQGTKVEIK
ka Cyno (Cyno BCMA): 6.22e+06 M⁻¹ s⁻¹

kd Cyno (Cyno BCMA): 0.000304 s⁻¹
ka Human (hBCMA (human BCMA)): 1.34e+07 M⁻¹ s⁻¹
kd Human (hBCMA (human BCMA)): 0.000115 s⁻¹
B12: COMBO_Rd4_0.6 nM_C21: anti-BCMA antibody (antibody, V domains shown)
VH: B1 VH with A33P, N35S, M52G, S53G, P57S, Y59P, A103D, L104S
VL: B1 VL with A31S, L32S, V94S
ka Cyno (Cyno BCMA): 3.63e+06 M⁻¹ s⁻¹
